Assay results: publication PMC11543927, “Subtleties in Clathrin heavy chain binding boxes provide selectivity among adaptor proteins of budding yeast” (Nature Communications, 2024)

B1: Clathrin heavy chain fused to mScarlet (Chc-mScarlet), wild type [Saccharomyces cerevisiae] / Ent1 endogenously tagged with mNeonGreen (Ent1-mNeonGreen) [Saccharomyces cerevisiae (endogenous in MK100)] (parent complex)
chain 1: MSDLPIEFTELVDLMSLGISPQFLDFRSTTFESDHFVTVRETKDGTNSVAIVDLAKGNEVTRKNMGGDSAIMHPSQMVISVRANGTIVQIFNLETKSKLKSFTLDEPVIFWRWLSETTLGFVTARSILTSNVFDGNVNAKPQLLTLRHANLNNTQIINFVANKNLDWFAVVGILQENGRIAGRIQLFSKQRNISQAIDGHVAIFTNILLEGNGSTPVQVFVTGNRNATTGAGELRIIEIDHDASLPSQYQKETTDIFFPPDATNDFPIAVQVSEKYGIIYLLTKYGFIHLYELETGTNLFVNRITAESVFTAAPYNHENGIACINKKGQVLAVEISTSQIVPYILNKLSNVALALIVATRGGLPGADDLFQKQFESLLLQNDYQNAAKVAASSTSLRNQNTINRLKNIQAPPGAISPILLYFSTLLDKGKLNKEETIELARPVLQQDRKQLFEKWLKEDKLECSEELGDIVKPFDTTLALACYLRAGAHAKVISCLAELQQFEKIIPYCQKVGYQPNFLVLISSLIRSSPDRASEFAVSLLQNPETASQIDIEKIADLFFSQNHIQQGTSLLLDALKGDTPDQGHLQTRVLEVNLLHAPQVADAILGNNIFSHYDKPTIASLSEKAGLYQRALENYTDIKDIKRCVVHTNALPIDWLVGYFGKLNVEQSLACLKALMDNNIQANIQTVVQVATKFSDLIGPSTLIKLFEDYNATEGLYYYLASLVNLTEDKDVVYKYIEAAAKMKQYREIERIVKDNNVYDPERVKNFLKDANLEDQLPLVIVCDRFDFVHEMILYLYKSQNLKFIETYVQQVNPSKTAQVVGALLDMDCDEAFIQSLLQSVLGQVPINELTTEVEKRNRLKILLPFLEQSLSQGIQDQAVYNALAKIYIDSNNSPEKFLKENDQYDTLDVGHYCEKRDPYLAYIAYEKGQNDDDLIRITNENSMYKYQARYLLERSDLDLWNKVLNQENIHRRQLIDSVISVGIPELTDPEPVSLTVQAFMTNGLKLELIELLEKIILEPSPFNENVALQGLLLLSAIKYEPTKVSSYIEKLDNYDADEIAPLCIEHDLKEEAFEIYDKHEMYGKALKVLIEDIMSLDRAASYADKINTPELWSQIGTAQLDGLRIPDAIESYIKAEDPSNYENVIDIAEQAGKYEELIPFLLMARKTLKEPKIDGALILAYAELNKIHEIENLLAGSNVANLDHVGDKLFENKEYKAARLCYSAVSNYSKLASTLVYLGDYQAAVDTARKASNIKVWKLVNDACIEKKEFKLAQICGLNLIVHAEELDELVERYESNGYFEELISLFEAGLGLERAHMGMFTELAILYSKYEPDKTFEHLKLFWSRINIPKVIRAVEQAHLWSELVFLYAHYDEWDNAALTLIEKSTKDLDHAYFKEVVVKVSNLEIYYKAINFYVKFHPSLLVDLLTSLTPRLDIPRTVKIFSKSDNLPLIKPFLINVLPKNNSVVNQAYHDLMIEEEDYKALQDAVDSYDKFDQLGLASRLESHKLIFFKKIGALLYRRNKKWAKSLSILKEEKLWKDAIETAAISQDPKVVEALLTYFVETGNREGFVALLYAAYNLVRIEFVLEISWMNSLEDYIKPFEISIKKEQNDSIKKITEELAKKSGSNEEHKDGQPLMLMNSAMNVQPTGF
chain 2: MSKQFVRSAKNLVKGYSSTQVLVRNATSNDNHQVSKDSLIELAEKSYDSADFFEIMDMLDKRLNDKGKYWRHIAKALTVIDYLIRFGSENCVLWCRENLYIIKTLKEFRHEDDEGIDQGQIVRVKAKELTALLSDDERLNEERNMNIKGRNRKGRRRRGTGRSDENDDDLQRAISASRLTAEEDERRRKQDEDYETALQLSKEEEELKRLQDLQRMQQQQGQQQLQQPMYYDIFGNPITPEEYAQFQLQQQQQQQQQQLQQQPMYYDVFGNPITPEELAQFQQQQQLQEQQYLASMQQQQQAMSNNPFAKSEQSSSSPKRNQLVAASSPQQLQQQKQQEPLIQNRTGNQSMTDKYSKLNELLATGTGIDTFGNVGEARIPAQHTKTGTFINSQGTGYRQVSDDPNHNPFLNSQYTGLPSTSVVPTQTGYGFGNQSQQQSQNNGSNNRGYTLIDL
B2: Clathrin heavy chain fused to mScarlet (Chc-mScarlet), wild type [Saccharomyces cerevisiae] / Ent2 endogenously tagged with mNeonGreen (Ent2-mNeonGreen) [Saccharomyces cerevisiae (endogenous in MK100)] (parent complex)
chain 1: B1 chain 1
chain 2: MSKQFVRSAKNMMKGYSSTQVLVRDATANDSRTPSIDTLDDLAQRSYDSVDFFEIMDMLDKRLNDKGKYWRHVAKSLTVLDYLVRFGSENCVLWCRENFYVIKTLREFRHENESGFDEGQIIRVKAKELVSLLNDEERLREERSMNTRNRRANRAARPRPRRQRTRSNPHDSSPSYQDDLEKALEESRITAQEDEQRRRELAQYDDEDPDFQAALQLSKEEEELKQLQELQRLQKQQQSLSQFQAPLQQQQPQQQPAYYDIFGNPISQDEYLQYQYQQDQEQAMAQQRWLDQQQEQQQLAEQQYFQQQQQAAAAASALQQQQTAANMQQQQQQPADFQQPLPTGSNNPFSMDNLERQKQEQQHAQLQRQQEEARQQQEQLKLQQLQRQQQEEAQLHQKRQEEAQLQQQQAQLLQQQAQFQQQQPLKQTRTGNQSISDKYSDLNTLLATGTGIDTFGNTGEARIPAQHTKTGTFINSQGTGYKQVTNEPKNNPFLSNQYTGLPSTNIVPTQTGYGFGNQPQSPPTNSPQQNPTGISYSQPQQQQQPQQQPQYMQNFQQQQPQYAQNFQQQPQYTQNYQQQPQYIQPHQQQQQQQQQQQQQQGYTPDQGVSLIDL

Variants of: B1
Assay: FRET acceptor photobleaching (in vivo); room temperature (21 °C); trimmed mean; n = 98; parent: 7.87

Row | response | Variant
1 | 8.23% | chain 1 F26A, chain 1 Q155A

Variants of: B1
Assay: FRET acceptor photobleaching (in vivo); room temperature (21 °C); trimmed mean; n = 103; parent: 7.87

Row | response | Variant
2 | 8.19% | chain 1 F26A, chain 1 Q155A, chain 1 Q195A, chain 1 I197T, chain 1 K251E

Variants of: B1
Assay: FRET acceptor photobleaching (in vivo); room temperature (21 °C); trimmed mean; n = 102; parent: 7.87

Row | response | Variant
3 | 8.6% | chain 1 Q195A, chain 1 I197T, chain 1 K251E

Variants of: B2
Assay: FRET acceptor photobleaching (in vivo); room temperature (21 °C); trimmed mean; n = 126; parent: 9.02

Row | response | Variant
4 | 10.1% | chain 1 F26A, chain 1 Q155A

Variants of: B2
Assay: FRET acceptor photobleaching (in vivo); room temperature (21 °C); trimmed mean; n = 98; parent: 9.02

Row | response | Variant
5 | 9.99% | chain 1 K63E, chain 1 I87D, chain 1 Q89A, chain 1 K98E

Variants of: B2
Assay: FRET acceptor photobleaching (in vivo); room temperature (21 °C); trimmed mean; n = 117; parent: 9.02

Row | response | Variant
6 | 7.18% | chain 1 F26A, chain 1 K63E, chain 1 I87D, chain 1 Q89A, chain 1 K98E, chain 1 Q155A

Variants of: B2
Assay: FRET acceptor photobleaching (in vivo); room temperature (21 °C); trimmed mean; n = 127; parent: 9.02

Row | response | Variant
7 | 7.03% | chain 1 F26A, chain 1 K63E, chain 1 I87D, chain 1 Q89A, chain 1 K98E, chain 1 Q155A, chain 1 Q195A, chain 1 I197T, chain 1 K251E
